Measured values published in article PMC10218266, “Unveiling CD59-Antibody Interactions to Design Paratope-Mimicking Peptides for Complement Modulation” (International Journal of Molecular Sciences, 2023).
Starred links: 1 amine or outer side, 2 acyl side, 3 side chain; linkers in the order of their positions; H or OH if unused. Positions of bridges follow the written chain, without caps; N, C: chain ends. Residues, ends and D or L forms follow the SMILES beside them. TBMB = c1c(C[*:1])cc(C[*:3])cc1C[*:2]

B1: pm59sh, bicyclic paratope-mimicking peptide (short version) (peptide)
peptide: Ac-CNKYLCQYYSTC-NH2
modifications: linker 1-6-12 via TBMB
SMILES: CC(=O)N[C@H]1CSCc2cc3cc(c2)CSC[C@H](NC(=O)[C@H](CC(C)C)NC(=O)[C@H](Cc2ccc(O)cc2)NC(=O)[C@H](CCCCN)NC(=O)[C@H](CC(N)=O)NC1=O)C(=O)N[C@@H](CCC(N)=O)C(=O)N[C@@H](Cc1ccc(O)cc1)C(=O)N[C@@H](Cc1ccc(O)cc1)C(=O)N[C@@H](CO)C(=O)N[C@@H]([C@@H](C)O)C(=O)N[C@H](C(N)=O)CSC3
notes: designed from key residues of the CDR1 and CDR3 loops of the VL chain of the scFv MB59, flanking residues changed to cysteines; also called short version of pm59; source: synthetic peptide (Fmoc solid phase, bi-cyclised with TBMB, RP-HPLC purified)
B2: pm59md, bicyclic paratope-mimicking peptide (medium version) (peptide)
peptide: Ac-CNNKYLCQYYSTPC-NH2
modifications: linker 1-7-14 via TBMB
SMILES: CC(=O)N[C@H]1CSCc2cc3cc(c2)CSC[C@H](NC(=O)[C@H](CC(C)C)NC(=O)[C@H](Cc2ccc(O)cc2)NC(=O)[C@H](CCCCN)NC(=O)[C@H](CC(N)=O)NC(=O)[C@H](CC(N)=O)NC1=O)C(=O)N[C@@H](CCC(N)=O)C(=O)N[C@@H](Cc1ccc(O)cc1)C(=O)N[C@@H](Cc1ccc(O)cc1)C(=O)N[C@@H](CO)C(=O)N[C@@H]([C@@H](C)O)C(=O)N1CCC[C@H]1C(=O)N[C@H](C(N)=O)CSC3
notes: designed from key residues of the CDR1 and CDR3 loops of the VL chain of the scFv MB59, flanking residues changed to cysteines; also called medium version of pm59; source: synthetic peptide (Fmoc solid phase, bi-cyclised with TBMB, RP-HPLC purified)

What was measured:
[1] = molecular target: T1, recombinant human CD59 (Homo sapiens, UniProt P13987); test: Surface Plasmon Resonance (SPR) direct binding assay; details: for kon: CD59 on CM5 chip, HBS-EP, 25 °C, 1:1 fit, average over tested peptide concentrations, read-out: ka
T1 construct: purchased Abcam ab134887
T1 sequence (P13987 26-128): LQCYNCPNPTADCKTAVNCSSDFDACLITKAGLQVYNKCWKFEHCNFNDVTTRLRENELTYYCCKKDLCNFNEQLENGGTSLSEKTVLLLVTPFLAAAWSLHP
Experimental: (§1) The bicyclic peptides were tested for their ability to bind to recombinant human CD59. Direct binding assays were performed both using Surface Plasmon Resonance (SPR) and Biolayer Interferometry (BLI) label-free techniques (Figure 5). In both cases, after immobilisation of the protein on the sensor chips, the peptides were tested at increasing concentrations between 2.5 µM and 50 µM. […] Binding experiments were next repeated using BLI to confirm the recognition.
Assessment of binding kinetics and affinity between pm59 peptides and CD59 was performed at 25 °C using standard protocols on a BIACORE 3000 system (GE Healthcare, Little Chalfont, UK) with a research-grade CM5 (Carboxymethyl dextran) sensor chip and using commercial CD59 (ab134887) obtained from Abcam (Cambridge, UK). After chip preparation according to the manufacturer’s guidelines and surface activation, CD59 was immobilised onto the chip at a density of 4000 RU (0.5 mg/mL in 10 μL/min) on a NaAc buffer at pH 4.5. Bovine serum albumin (BSA) was immobilised on flow cell 2 to serve as reference. All surfaces were blocked with a 7′ injection of 1 M ethanolamine at pH 8.5.
The bicyclic acetylated CD59-targeting peptides were diluted in HBS-EP buffer (GE Healthcare, Little Chalfont, UK) and injected over the flow cells at a flow rate of 30 μL/min and concentrations ranging from 1 μM to 30 μM. Association of the complexes was allowed for 120 s and dissociation for 240 s. Regeneration of the surfaces was obtained by the sequential injection of 5 mM NaOH pulses (10 μL/min) until the established baseline was reached. Kinetics and binding data were fitted to a 1:1 stoichiometric interaction model using the global data analysis of the BIAevaluation software (GE Healthcare, Little Chalfont, UK) and Graphpad (Graphpad software, San Diego, CA, USA).

[2] = molecular target: T1, recombinant human CD59; test: Biolayer Interferometry (BLI) direct binding assay; details: for kon / koff: CD59 on AR2G sensor, Kinetic Buffer, 1:1 fit; for kon: read-out: ka; for koff: read-out: kdis
Experimental: as §1
The BLI technique was used to assess the binding of the peptides towards the human recombinant CD59 protein (Abcam code ab134887). The protein was efficiently immobilized at 15 μg/mL in 10 mM NaAc at pH 4.5 on a AR2G sensor chip (Sartorius) according to the manufacturer’s instructions. An unmodified sensor chip was used as blank. The peptides were tested at increasing concentrations from 5 µM to 50 µM dissolved in Kinetic Buffer (PBS containing 0.02% Tween20, 0.1% BSA, 0.05% sodium azide) and using the same running buffer. All analyses were carried out at 25 °C; 10 mM NaOH was used to regenerate the chip surface. All mathematical manipulations were performed using the Octet Analysis Studio 12.2 software from Sartorius. Data were fitted assuming a 1:1 Langmuir binding model determining the KDs by the global analysis mode. Binding curves were exported and charted using GraphPad software, vers. 5.

[3] = molecular target: T2, human recombinant CD59 protein (human, UniProt P13987 26-99); test: SPR; CD59 immobilised on a CM5 chip (4000 RU, NaAc buffer pH 4.5), BSA on the reference flow cell; peptides in HBS-EP injected at 30 μL/min, 25 °C, BIACORE 3000; 1:1 Langmuir model; details: both partners purified
T2 construct: CD59, human, recombinant commercial product (Abcam ab134887); also called commercial CD59 (ab134887); source: bought: Abcam (ab134887), recombinant
T2 sequence: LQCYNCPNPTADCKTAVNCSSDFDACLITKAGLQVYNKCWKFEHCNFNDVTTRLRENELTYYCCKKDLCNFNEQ

[4] = molecular target: T2, human recombinant CD59 protein; test: BLI; CD59 immobilised at 15 μg/mL in 10 mM NaAc pH 4.5 on an AR2G sensor; peptides 5 µM to 50 µM in Kinetic Buffer (PBS, 0.02% Tween20, 0.1% BSA, 0.05% sodium azide), 25 °C; 1:1 Langmuir model; details: both partners purified
[5] = 25 °C, average over tested peptide concentrations

Molecule | kon [1] [M⁻¹ s⁻¹] | kon [2, 5] [M⁻¹ s⁻¹] | koff [2, 5] [s⁻¹] | KD at 5 μM [3] [µM] | KD at 10 μM [3] [µM] | KD at 20 μM [3] [µM] | KD at 30 μM [3] [µM] | Kd [3] [µM] | ka at 5 μM [3] [M⁻¹ s⁻¹] | ka at 10 μM [3] [M⁻¹ s⁻¹] | ka at 20 μM [3] [M⁻¹ s⁻¹] | ka at 30 μM [3] [M⁻¹ s⁻¹] | kd at 5 μM [3] [s⁻¹] | kd at 10 μM [3] [s⁻¹] | kd at 20 μM [3] [s⁻¹] | kd at 30 μM [3] [s⁻¹] | koff [3] [s⁻¹] | KD at 10 μM [4] [µM] | KD at 20 μM [4] [µM] | KD at 30 μM [4] [µM] | other results
CC(=O)N[C@H]1CSCc2cc3cc(c2)CSC[C@H](NC(=O)[C@H](CC(C)C)NC(=O)[C@H](Cc2ccc(O)cc2)NC(=O)[C@H](CCCCN)NC(=O)[C@H](CC(N)=O)NC(=O)[C@H](CC(N)=O)NC1=O)C(=O)N[C@@H](CCC(N)=O)C(=O)N[C@@H](Cc1ccc(O)cc1)C(=O)N[C@@H](Cc1ccc(O)cc1)C(=O)N[C@@H](CO)C(=O)N[C@@H]([C@@H](C)O)C(=O)N1CCC[C@H]1C(=O)N[C@H](C(N)=O)CSC3 [pm59md] (Ac-CNNKYLCQYYSTPC-NH2; linker 1-7-14 via TBMB) | 2930 | 919 | 0.00333 |  |  |  |  |  |  |  |  |  |  |  |  |  |  |  |  |  | Kd ([2]; OCTET R8, CD59 immobilised on AR2G sensor, Kinetic Buffer (PBS, 0.02% Tween20, 0.1% BSA, 0.05% sodium azide), 25 °C, 1:1 Langmuir fit, average over tested peptide concentrations): 4.39 µM
CC(=O)N[C@H]1CSCc2cc3cc(c2)CSC[C@H](NC(=O)[C@H](CC(C)C)NC(=O)[C@H](Cc2ccc(O)cc2)NC(=O)[C@H](CCCCN)NC(=O)[C@H](CC(N)=O)NC1=O)C(=O)N[C@@H](CCC(N)=O)C(=O)N[C@@H](Cc1ccc(O)cc1)C(=O)N[C@@H](Cc1ccc(O)cc1)C(=O)N[C@@H](CO)C(=O)N[C@@H]([C@@H](C)O)C(=O)N[C@H](C(N)=O)CSC3 [pm59sh] (Ac-CNKYLCQYYSTC-NH2; linker 1-6-12 via TBMB) | 2930 | 463 | 0.00268 |  |  |  |  |  |  |  |  |  |  |  |  |  |  |  |  |  | 
Ac-CNNKYLACQQYYSTPC-NH2 (also: bicyclic or more (positions not given here)) [pm59ln, long bicyclic paratope-mimicking peptide of MB59 VL CDR1/CDR3, three cysteines linked by TBMB, N-acetylated, C-amidated] |  |  |  |  |  |  |  |  |  |  |  |  |  |  |  |  |  |  |  |  | binding to CD59 (in words) ([1]; immobilised CD59, peptide at increasing concentrations between 2.5 µM and 50 µM (Figure 5E)): No significant binding; binding to CD59 (in words) ([2]; immobilised CD59, peptide at increasing concentrations between 2.5 µM and 50 µM (Figure 5F)): No significant binding
B1 |  |  |  | 0.469 | 1.64 | 2.61 | 4.46 | 2.42 | 7260 | 3010 | 1560 | 1230 | 0.0034 | 0.00493 | 0.00408 | 0.00548 | 0.00469 | 4.98 | 9.92 | 8.45 | KD at 7.5 μM [3]: 1.24 µM; KD at 15 μM [3]: 2.39 µM; KD at 25 μM [3]: 4.13 µM; ka at 7.5 μM [3]: 4210 M⁻¹ s⁻¹; ka at 15 μM [3]: 2050 M⁻¹ s⁻¹; ka at 25 μM [3]: 1160 M⁻¹ s⁻¹; kd at 7.5 μM [3]: 0.00523 s⁻¹; kd at 15 μM [3]: 0.0049 s⁻¹; kd at 25 μM [3]: 0.00481 s⁻¹; KD at 5 μM [4]: 0.865 µM; KD at 40 μM [4]: 15 µM; KD at 50 μM [4]: 15.9 µM; Kd [4]: 9.18 µM; ka at 5 μM [4]: 1130 M⁻¹ s⁻¹; ka at 10 μM [4]: 524 M⁻¹ s⁻¹; ka at 20 μM [4]: 294 M⁻¹ s⁻¹; ka at 30 μM [4]: 451 M⁻¹ s⁻¹; ka at 40 μM [4]: 197 M⁻¹ s⁻¹; ka at 50 μM [4]: 178 M⁻¹ s⁻¹
B2 |  |  |  | 0.902 | 1.09 | 3.1 | 4.39 | 3.13 | 7080 | 4830 | 2290 | 1270 | 0.00638 | 0.00526 | 0.0071 | 0.00627 | 0.00582 | 1.23 | 4.12 | 6.09 | KD at 2.5 μM [3]: 1.38 µM; KD at 40 μM [3]: 3.88 µM; KD at 50 μM [3]: 4.9 µM; ka at 2.5 μM [3]: 5960 M⁻¹ s⁻¹; ka at 40 μM [3]: 1320 M⁻¹ s⁻¹; ka at 50 μM [3]: 980 M⁻¹ s⁻¹; kd at 2.5 μM [3]: 0.00814 s⁻¹; kd at 40 μM [3]: 0.00511 s⁻¹; kd at 50 μM [3]: 0.0048 s⁻¹; KD at 25 μM [4]: 6.52 µM; KD at 40 μM [4]: 8.38 µM; ka at 5 μM [4]: 963 M⁻¹ s⁻¹; ka at 10 μM [4]: 1560 M⁻¹ s⁻¹; ka at 20 μM [4]: 889 M⁻¹ s⁻¹; ka at 25 μM [4]: 783 M⁻¹ s⁻¹; ka at 30 μM [4]: 750 M⁻¹ s⁻¹; ka at 40 μM [4]: 564 M⁻¹ s⁻¹
